This is an account of results in article PMC12723728.

Substrate in this series: C[S+](CC[C@H](N)C(=O)O)C[C@H]1O[C@@H](n2cnc3c(N)ncnc32)[C@H](O)[C@@H]1O
Kind of series: purified protein. The conditions noted are these: co-substrate mGpppAmC RNA 1 μM; 100 nM enzyme; SAM 0.5-6 μM; labelled compound.

B1: CMTR2 (Homo sapiens) (protein)
chain: MSKCRKTPVQQLASPASFSPDILADIFELFAKNFSYGKPLNNEWQLPDPSEIFTCDHTELNAFLDLKNSLNEVKNLLSDKKLDEWHEHTAFTNKAGKIISHVRKSVNAELCTQAWCKFHEILCSFPLIPQEAFQNGKLNSLHLCEAPGAFIASLNHYLKSHRFPCHWSWVANTLNPYHEANDDLMMIMDDRLIANTLHWWYFGPDNTGDIMTLKFLTGLQNFISSMATVHLVTADGSFDCQGNPGEQEALVSSLHYCEVVTALTTLGNGGSFVLKMFTMFEHCSINLMYLLNCCFDQVHVFKPATSKAGNSEVYVVCLHYKGREAIHPLLSKMTLNFGTEMKRKALFPHHVIPDSFLKRHEECCVFFHKYQLETISENIRLFECMGKAEQEKLNNLRDCAIQYFMQKFQLKHLSRNNWLVKKSSIGCSTNTKWFGQRNKYFKTYNERKMLEALSWKDKVAKGYFNSWAEEHGVYHPGQSSILEGTASNLECHLWHILEGKKLPKVKCSPFCNGEILKTLNEAIEKSLGGAFNLDSKFRPKQQYSCSCHVFSEELIFSELCSLTECLQDEQVVVPSNQIKCLLVGFSTLRNIKMHIPLEVRLLESAELTTFSCSLLHDGDPTYQRLFLDCLLHSLRELHTGDVMILPVLSCFTRFMAGLIFVLHSCFRFITFVCPTSSDPLRTCAVLLCVGYQDLPNPVFRYLQSVNELLSTLLNSDSPQQVLQFVPMEVLLKGALLDFLWDLNAAIAKRHLHFIIQREREEIINSLQLQN
For the protein B1, the K0.5 worked out at 1.3 ± 0.1 µM and the kcat is 0.000944 ± 0.00011 s⁻¹.
